Assay [1] deals with pcd15_mouse Pcdh15 (UniProt Q99PJ1).
The target in assay [2] is Cdh23, Q99PF4-1.
Assay [3] concerns the target Cdh23, Q99PF4-1. The source holds these as a separate data set.

Sequence of Cdh23, Q99PF4-1 (Q99PF4 whole entry): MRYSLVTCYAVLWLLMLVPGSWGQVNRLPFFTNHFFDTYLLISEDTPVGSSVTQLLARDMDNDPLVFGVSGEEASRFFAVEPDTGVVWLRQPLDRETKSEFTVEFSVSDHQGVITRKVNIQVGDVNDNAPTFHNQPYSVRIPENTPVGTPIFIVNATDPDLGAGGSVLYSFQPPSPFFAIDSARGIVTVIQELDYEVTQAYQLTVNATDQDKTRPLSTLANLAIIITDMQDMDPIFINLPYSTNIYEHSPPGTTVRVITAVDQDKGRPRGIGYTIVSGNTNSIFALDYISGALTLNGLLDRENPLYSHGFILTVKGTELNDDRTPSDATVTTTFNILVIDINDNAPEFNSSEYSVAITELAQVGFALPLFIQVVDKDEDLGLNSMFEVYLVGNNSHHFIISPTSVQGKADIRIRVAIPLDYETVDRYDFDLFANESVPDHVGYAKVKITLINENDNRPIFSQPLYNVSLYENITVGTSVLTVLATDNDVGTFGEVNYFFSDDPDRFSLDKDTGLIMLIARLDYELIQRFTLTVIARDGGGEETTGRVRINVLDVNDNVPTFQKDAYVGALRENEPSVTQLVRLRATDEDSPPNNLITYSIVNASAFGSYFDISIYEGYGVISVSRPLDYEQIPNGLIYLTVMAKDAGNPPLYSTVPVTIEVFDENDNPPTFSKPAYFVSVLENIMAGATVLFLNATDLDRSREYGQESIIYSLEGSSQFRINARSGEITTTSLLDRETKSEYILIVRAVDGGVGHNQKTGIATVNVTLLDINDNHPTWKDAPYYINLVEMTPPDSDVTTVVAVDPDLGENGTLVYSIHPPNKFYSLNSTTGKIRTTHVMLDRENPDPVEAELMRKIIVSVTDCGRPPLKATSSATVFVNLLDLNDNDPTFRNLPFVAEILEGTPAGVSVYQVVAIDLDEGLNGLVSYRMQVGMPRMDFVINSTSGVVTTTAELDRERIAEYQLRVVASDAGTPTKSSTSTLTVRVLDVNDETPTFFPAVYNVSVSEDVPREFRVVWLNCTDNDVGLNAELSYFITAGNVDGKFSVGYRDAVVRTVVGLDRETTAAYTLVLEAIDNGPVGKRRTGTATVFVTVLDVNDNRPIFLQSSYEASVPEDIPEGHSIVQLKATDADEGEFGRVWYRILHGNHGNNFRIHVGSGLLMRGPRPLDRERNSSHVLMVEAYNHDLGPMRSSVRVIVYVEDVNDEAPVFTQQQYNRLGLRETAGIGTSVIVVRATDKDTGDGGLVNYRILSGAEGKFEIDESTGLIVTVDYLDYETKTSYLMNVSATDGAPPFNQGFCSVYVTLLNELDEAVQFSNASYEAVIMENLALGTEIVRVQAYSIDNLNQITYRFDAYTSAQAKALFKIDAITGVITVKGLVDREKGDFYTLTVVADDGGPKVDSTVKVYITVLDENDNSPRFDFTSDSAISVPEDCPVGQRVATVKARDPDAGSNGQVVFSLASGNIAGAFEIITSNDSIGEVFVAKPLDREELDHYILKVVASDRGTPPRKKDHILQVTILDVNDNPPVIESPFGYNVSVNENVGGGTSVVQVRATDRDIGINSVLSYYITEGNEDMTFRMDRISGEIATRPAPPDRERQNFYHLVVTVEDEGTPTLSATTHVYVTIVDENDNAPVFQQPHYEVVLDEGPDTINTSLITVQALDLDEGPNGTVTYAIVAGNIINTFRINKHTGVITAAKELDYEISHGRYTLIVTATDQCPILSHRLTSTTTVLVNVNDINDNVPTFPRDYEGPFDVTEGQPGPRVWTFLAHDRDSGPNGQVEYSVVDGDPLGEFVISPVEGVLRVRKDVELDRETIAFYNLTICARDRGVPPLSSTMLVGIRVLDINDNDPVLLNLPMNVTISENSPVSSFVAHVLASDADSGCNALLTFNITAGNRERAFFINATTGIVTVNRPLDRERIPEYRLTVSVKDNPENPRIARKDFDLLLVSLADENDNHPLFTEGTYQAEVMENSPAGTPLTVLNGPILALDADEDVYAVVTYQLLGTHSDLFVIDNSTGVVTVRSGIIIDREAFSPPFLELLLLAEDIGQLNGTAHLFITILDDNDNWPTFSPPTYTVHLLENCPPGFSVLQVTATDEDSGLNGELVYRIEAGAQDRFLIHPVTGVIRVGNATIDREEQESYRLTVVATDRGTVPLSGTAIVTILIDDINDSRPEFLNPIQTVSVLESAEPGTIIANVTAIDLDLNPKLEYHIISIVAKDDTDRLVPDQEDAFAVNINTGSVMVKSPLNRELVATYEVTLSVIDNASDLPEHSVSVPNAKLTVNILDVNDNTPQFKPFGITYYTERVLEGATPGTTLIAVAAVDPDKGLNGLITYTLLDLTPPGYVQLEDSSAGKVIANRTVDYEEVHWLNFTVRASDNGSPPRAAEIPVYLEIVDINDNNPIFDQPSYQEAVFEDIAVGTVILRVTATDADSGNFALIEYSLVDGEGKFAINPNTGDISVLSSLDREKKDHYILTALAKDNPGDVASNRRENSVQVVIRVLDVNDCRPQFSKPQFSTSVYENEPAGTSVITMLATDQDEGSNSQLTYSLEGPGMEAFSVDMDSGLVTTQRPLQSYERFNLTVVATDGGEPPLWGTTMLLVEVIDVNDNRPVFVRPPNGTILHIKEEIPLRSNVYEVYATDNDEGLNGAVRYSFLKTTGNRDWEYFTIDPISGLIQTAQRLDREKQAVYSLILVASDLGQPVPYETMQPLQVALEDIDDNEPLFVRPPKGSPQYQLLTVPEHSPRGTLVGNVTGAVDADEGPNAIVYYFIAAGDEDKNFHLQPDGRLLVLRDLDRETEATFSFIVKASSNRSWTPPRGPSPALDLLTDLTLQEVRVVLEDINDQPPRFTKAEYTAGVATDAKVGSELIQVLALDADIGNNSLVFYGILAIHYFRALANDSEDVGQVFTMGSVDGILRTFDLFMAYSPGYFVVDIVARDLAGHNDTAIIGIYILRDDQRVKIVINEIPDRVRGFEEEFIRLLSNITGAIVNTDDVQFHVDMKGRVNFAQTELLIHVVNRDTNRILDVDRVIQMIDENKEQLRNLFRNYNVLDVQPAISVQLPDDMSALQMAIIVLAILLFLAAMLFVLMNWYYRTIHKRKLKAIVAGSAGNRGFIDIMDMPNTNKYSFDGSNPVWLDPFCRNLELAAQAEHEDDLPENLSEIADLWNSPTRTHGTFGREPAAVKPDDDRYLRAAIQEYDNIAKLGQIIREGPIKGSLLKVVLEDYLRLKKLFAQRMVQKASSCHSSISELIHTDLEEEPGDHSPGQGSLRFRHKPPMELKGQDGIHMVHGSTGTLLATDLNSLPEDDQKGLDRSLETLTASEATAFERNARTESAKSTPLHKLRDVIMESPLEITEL

“Cadherin-23 (Mus musculus), Q99PF4-1 D124G”: in assay [1], the “effect of a mutation on the interaction” value is given as “decreasing interaction strength”.

For “Protocadherin-15 (Mus musculus), Q99PJ1 I48A”, the “effect of a mutation on the interaction” value in assay [2] is “decreasing interaction strength”.

Turning to “Protocadherin-15 (Mus musculus), Q99PJ1 R139G”, the “effect of a mutation on the interaction” value was “disrupting interaction strength” in assay [3] and “decreasing interaction strength” in assay [2].

Turning to “Cadherin-23 (Mus musculus), Q99PF4-1 L168G”, the “effect of a mutation on the interaction” value in assay [1] is given as “decreasing interaction strength”.
